Laboratory results as given in patent publication US11026972B2, “Methods for generating macrophages with enhanced cancer phagocytosis” (Georgia State University Research Foundation, Inc., priority 2016, dated 2021).

Columns and labels:
B16 melanoma = B16 melanoma pulmonary metastases model; type: in vivo, mouse; conditions: SIRPα^−/− mice
Experimental: Mouse models of B16 melanoma: B16-F10 melanoma cells (American Type Culture Collection) were cultured in DMEM with 8% FBS. B16 melanoma pulmonary metastases were established by intravenous (i.v.) injection of B16 cells (5×10^5, >95% viability) suspended in 100 μl PBS through the tail vein. The mice were allowed to live to reach humane endpoints or sacrificed on day 15 post B16 inoculation for analyses of melanoma formation in the lungs and other organs. To test macrophage eradication of B16 in vivo, recombinant murine IL-17 (20 μg) was given a day after the B16 implantation and then again two additional administrations three and six days later (total 3 administrations). For SIRPα^−/− mice survived first B16 injection, B16 cells (5×10^5) were injected (i.v.) once again three months without further IL-17 administration. […] For serum treatment, WT mice with B16 inoculation were given serum samples (150 μl, every three days, 3×) derived from control mice or B16-eradicated SIRPα^−/− mice. In other experiments, 2×10^7 splenocytes from control mice or B16-eradicated SIRPα^−/− mice were transferred into WT mice. After 10 days, B16 cells were inoculated into the recipient mice and melanoma development was examined.

[1] = test system: CFSE-labeled CD47^+ or CD47^− RBCs in recipient mice; experiment: RBC adoptive transfer and in vivo clearance of CFSE-labeled RBCs; parameters: species or system mouse; conditions: 24 h
From the text: FIGS. 2A-2E includes data related to macrophage phagocytosis in vivo assessed by adoptive transfer experiments. FIGS. 2A-C are illustrative graphs showing clearance of adoptively transferred CD47-positive (Cd47^+) or CD47-negative (Cd47^−) RBC in recipient mice. […] Error bars are ±SEM. **P<0.01, ***P<0.001 vs. WT mice clearance of Cd47^+ RBCs. […] Mice treated with DSS (1% for SIRPα^−/− mice, 2% for WT and Cd47^−/− mice) for 8 d (d8) were transfused with CFSE-RBCs followed by determination of RBC clearance after 24 h. FACS data of Cd47^+ RBCs and Cd47^− RBCs in different mice at 30 min and 24 h after transfer were selectively shown. Total RBC phagocytosis was calculated based on the rates of CFSE-RBC clearance and the fact that SIRPα^−/− mice eliminate both Cd47^− RBC and Cd47^+ RBC, whereas WT mice and Cd47^−/− mice eliminate only Cd47^− RBCs. […] Mice treated once with IL-17 (10 μg/kg, i.v.) were transfused with CFSE-labeled Cd47^+ or Cd47^− RBCs a day later. Error bars are ±SEM. **P<0.01, ***P<0.001 vs. control or the initial time point. Data presented in each panel represent at least three independent experiments with n≥4, if applicable.
Adoptive transfer and in vivo clearance: CD47-expressing (CD47^+) RBC freshly collected from WT or SIRPα^−/− mice, and CD47-null (CD47^−) RBC collected from CD47^−/− mice were labeled with carboxyfluorescein succinimidyl ester (CFSE). After washing, about 1×10^9 RBC suspended in 200 μl sterile PBS were transfused into recipient mice by intravenous (i.v.) injection. Blood samples (5 μl) were then collected 30 min after the blood transfusion and the CFSE-labeled RBC in the circulation was assessed by FACS analyses. Blood samples (5 μl each) were then collected at later time points to assess the clearance of CFSE-labeled RBC as compared to that found at 30 min. For each sample, at least 50,000 RBC were examined by FACS. […] Clearance of CFSE-labeled cells in the circulation and the spleen were analyzed by FACS analyses of blood samples and splenocytes. […]

B1: IL-17: recombinant murine cytokine interleukin IL-17 (also known as IL-17A), PeproTech (protein, UniProt Q62386 26-158, looked up)
Interleukin-17A: AAIIPQSSACPNTEAKDFLQNVKVNLKVFNSLGAKVSSRRPSDYLNRSTSPWTLHRNEDPDRYPSVIWEAQCRHQRCVNAEGKLDHHMNSVLIQQEILVLKREPESCPFTFRVEKMLVGVGCTCVASIVRQAA
B16 melanoma (B16 melanoma): eliminated B16 melanoma | clearance of transferred CD47^+ and CD47^− RBCs ([1]; SIRPα^−/− mice, 1% DSS for 8 d or directly injected with IL-17): ~50% | clearance of transferred RBCs ([1]; mutant mice treated with IL-17 multiple times and a longer period (d1 and d3)): < 5%
